# From the nanobody polyreactivity screen of Harvey et al. (2022)
# Test: yeast display, Sf9 membrane polyspecificity reagent, FACS + sequencing; frameworks hold sequencing errors
# Procedure, shortened: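 In a synthetic yeast display library (Saccharomyces cerevisiae BJ5465), nanobody expression was induced with galactose for 36–48 hours. FACS gates were set low and high (top ~1%) using anti-HA fluorescence for expression and streptavidin fluorescence for binding of the Sf9 membrane reagent. Each polyreactivity label is drawn from the gate of origin.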
sequence,measurement,value
QVQLVESGGGLVQAGGSLRLSCAASGSIFLWNAMGWYRQAPGKERELVAAITWRGGRTSYADSVKGRFTISRDNAKNTVYLQMNSLKPEDTAVYYCAKEAHPPWTGQDVFRSYDYWGQGTQVTVSS,polyreactivity (PSR sort gate),low polyreactivity
QVQLVESCGGLVQAGGSLSLSCAASGRILYYYAMGWYRQAPGKERELVAAITSGGSTYADSVKGRFTISRDNAKNTVYLQMNSLKPEDTAVYYCNADYTVYDTEYDYWGQGTQVTVSS,polyreactivity (PSR sort gate),low polyreactivity
QVQLVESGGGLVQAGGSLRLSCAAAGRIFSYNAMGWYRQAPGKERELVAAISSGGSTYYADSVKGRFTISRDNAKNTFYLQMNSLKPEDTAVYYCAADRRYYSDMYYWGQGTQVTVSS,polyreactivity (PSR sort gate),low polyreactivity
QVQLVESGGGLVQAGGSLRLSCAASGSTFWGYALGWYRQAPGKERELVASIRRGASTTYADSVKGRFTISRDNAKNTVYLQMNSLKPEDSAVYYCAKPGYFRSHDYWGQGTQVTVSS,polyreactivity (PSR sort gate),low polyreactivity
QVQLVESWGGLGQAVGSLRLSCAASGRTFLIYAMGWYIQAPGTERELVASITGRGGRTSYADSVKGRFTISRDNAQNTVYLQMNSLKPEDTAVYYCAARNPYTSTYYYWGQGTQVTVSS,polyreactivity (PSR sort gate),high polyreactivity
QVQLVESGGGLVQAGGSLRLSCAASGRIFSSNAMGWYRQAPGKERELVASINRGDRTYYADSVKGRFTISRDNAKNTVYLQMNSLKPEDTAVYYCAAARTYGKKYGYWGQGTQVTVSS,polyreactivity (PSR sort gate),high polyreactivity
QVQLVESGGGLVQAGGSLRLSCAASGSILRLYAMGWYRQAPGKERELVAAISSGGSTYYADSVKGRFPISRDNAKNTVYLQMNSLKPEDTAVYYCAAGVFWSWRYAYDYWGKGTQVTVSS,polyreactivity (PSR sort gate),low polyreactivity
QVQLVESGGGLVQAGGSLRLTCAASGNTFVSNAMGWYRQAPGKERELVAAIDSGGSTNYADSVKGRFTISRDNAKNTVYLQMNSLKPEDTAVYYCNRTSVYYYYWGQGTQVTVSS,polyreactivity (PSR sort gate),low polyreactivity
QVQLVESGGGLVQAGGSLRLSCAASGFIFKSYTMGWYRQAPGKERELVAAITWSGDSTYADSVKGRFTISRDNAKNTVYLQMNSLKPEDTAVYYCAKNYAYLYYSWGQGTQVTVSS,polyreactivity (PSR sort gate),low polyreactivity
QVQLVDSGGGLVQAGGSLRLSCAASGRTFRGNVMGWYRQAPGKEREFVAAITKSDGSTYYADSVKGRFTISRDNAKNTVYLQKNSLKPEDTAVYYCAARTARTGWPWFRYDYWGQGTQVTVSS,polyreactivity (PSR sort gate),low polyreactivity
QVQLVESGGGLVQAGGSLRFSCAAPGTIFPRYAMGWYRQAPGKERELVAAISRSGGSTYYADSVKGRFTISRDNAKNTVYLQMNSLKPEDTAVYYCATDKVSHRRYDYWGQGTQVTVSS,polyreactivity (PSR sort gate),high polyreactivity
QVQLVESGGGLVQAGGSLRLSCAASGRIFGIYAMGWYRQAPGKERELVADIDVSDGSTYYADSVKGRFTISRDNAKNTVYLQMNSLKPEDTAVYYCNAEDSSRWYDWYLHDYWGQGTQVTVSS,polyreactivity (PSR sort gate),high polyreactivity
QVQLVESGGGLVQAGGSLRLRCAASGRIRYYGIGCYRQAPGKERELVAAITWRAGRTYYADSVKGRFTISRDNANITVYLHMNSLKPEDSAVYYCAAAIYSRSFRVDYWGQGTQVSVSS,polyreactivity (PSR sort gate),high polyreactivity
QVQLVESVGGLVQAGGSLRLSCAASGINFGFNTMGWYRQAPGKERELVAAINGSDGSTYADSVKGRFTISRDNAKNTVYLQMNSLKPEDTAVYYCAADAYDGEGTYPFEYWGQGTQVTVSS,polyreactivity (PSR sort gate),low polyreactivity
QVQLVESGGGLVQAGGTLRISCAPSGRIFNTNAMRWYRQAPGKERELVAGITDSGDSTYYADSVKGRFTISRDNAKNTVYLQMISLKPEDTAVYYCATDPASPYIYDYWGQGTQVTVSS,polyreactivity (PSR sort gate),low polyreactivity
QVQIVESGAGLVQAGRSLRLSCAASGIIFHRYAMGWYRQAPGKERELVAAITWSGDSTYYADSVKGRFTISRDNAKNTVYLQMNSLKPEDTAVYYFWEYDYWGQGTQVTVSS,polyreactivity (PSR sort gate),low polyreactivity
QVQLVESGGGLVQAGRSLRLSCAASGSTFHPYAMGWYRQAPGKERELVAAINSGDNTYYADSVKGRFTISRDNAKNTVYLQMNSLKPEDTAVYYCAVRYWDESHTEYDYWGQGTQVTVSS,polyreactivity (PSR sort gate),low polyreactivity
QVQLVESGGGLVQAGGSLRLSCAASGSIFRFYVMGWYRQAPGKERELVAAISIGGSTNYADSVKGRFTISRDNAKNTVFLQMNSLKPEDTAVYYCAADYWYGAGMPHGTEFDYWGQGTQVTVSS,polyreactivity (PSR sort gate),low polyreactivity
QVQLVESGGGLVQAGGSLRLSCAASGNIFRINGMGWYRQAPGKERELVASITRSGSTYYADSVKGRFTISRDNANNTVYLKMNSLKPEDTAVYYCAADSRRYGVRFDYWGQGTQVTVSS,polyreactivity (PSR sort gate),low polyreactivity
QVQLVESGGGLVQAGGSLRLSCAASGSIFVTYAMGSYRQAPGKERELVAAITSIGGTTYYSDSVKGRFTISRDNAKNTVYLQMNSLKPEDTAVYYCAVDGGEFSSYGYWGQGTEVTVSS,polyreactivity (PSR sort gate),low polyreactivity
QVQLVESGGGLVQAGGSLRLSCAASGSIFRDNGMGWYRQAPGKERELVAAINSGDSTYYADSVKGRFTISRDNAKNTVYLQMNSLKPEDTAVYYCNADDRRALSQRQYDWYDYWGQGTQVTVSS,polyreactivity (PSR sort gate),low polyreactivity
QVQLVESGGGLVQAGGSLRLSCAASGFIFGDYAMGWYRQAPGKERELVAAINRGASTYYADSVKGSFTISRDNPKNTVYLQMNSLTPEDTAVYYCAAAGNSRGGRGGYWGQGTQVSVSS,polyreactivity (PSR sort gate),high polyreactivity
